Measured values as given in patent publication US10836815B2, “Generation and comparative kinetic analysis of new glycosynthase mutants from Streptococcus pyogenes endoglycosidases for antibody glycoengineering” (UNIVERSITY OF MARYLAND, COLLEGE PARK, priority 2017, dated 2020).

B1: Endo-S2 D184M (protein)
chain: EEKTVQTGKTDQQVGAKLVQEIREGKRGPLYAGYFRTWHDRASTGIDGKQQHPENTMAEVPKEVDILFVFHDHTASDSPFWSELKDSYVHKLHQQGTALVQTIGVNELNGRTGLSKDYPDTPEGNKALAAAIVKAFVTDRGVDGLDIMIEHEFTNKRTPEEDARALNVFKEIAQLIGKNGSDKSKLLIMDTTLSVENNPIFKGIAEDLDYLLRQYYGSQGGEAEVDTINSDWNQYQNYIDASQFMIGFSFFEESASKGNLWFDVNEYDPNNPEKGKDIEGTRAKKYAEWQPSTGGLKAGIFSYAIDRDGVAHVPSTYKNRTSTNLQRHEVDNISHTDYTVSRKLKTLMTEDKRYDVIDQKDIPDPALREQIIQQVGQYKGDLERYNKTLVLTGDKIQNLKGLEKLSKLQKLELRQLSNVKEITPELLPESMKKDAELVMVGMTGLEKLNLSGLNRQTLDGIDVNSITHLTSFDISHNSLDLSEKSEDRKLLMTLMEQVSNHQKITVKNTAFENQKPKGYYPQTYDTKEGHYDVDNAEHDILTDFVFGTVTKRNTFIGDEEAFAIYKEGAVDGRQYVSKDYTYEAFRKDYKGYKVHLTASNLGETVTSKVTATTDETYLVDVSDGEKVVHHMKLNIGSGAIMMENLAKGAKVIGTSGDFEQAKKIFDGEKSDRFFTWGQTNWIAFDLGEINLAKEWRLFNAETNTEIKTDSSLNVAKGRLQILKDTTIDLEKMDIKNRKEYLSNDENWTDVAQMDDAKAIFNSKLSNVLSRYWRFCVDGGASSYYPQYTELQILGQRLSNDVANTLKD
B2: Endo-S2 D184A (protein)
chain: EEKTVQTGKTDQQVGAKLVQEIREGKRGPLYAGYFRTWHDRASTGIDGKQQHPENTMAEVPKEVDILFVFHDHTASDSPFWSELKDSYVHKLHQQGTALVQTIGVNELNGRTGLSKDYPDTPEGNKALAAAIVKAFVTDRGVDGLDIAIEHEFTNKRTPEEDARALNVFKEIAQLIGKNGSDKSKLLIMDTTLSVENNPIFKGIAEDLDYLLRQYYGSQGGEAEVDTINSDWNQYQNYIDASQFMIGFSFFEESASKGNLWFDVNEYDPNNPEKGKDIEGTRAKKYAEWQPSTGGLKAGIFSYAIDRDGVAHVPSTYKNRTSTNLQRHEVDNISHTDYTVSRKLKTLMTEDKRYDVIDQKDIPDPALREQIIQQVGQYKGDLERYNKTLVLTGDKIQNLKGLEKLSKLQKLELRQLSNVKEITPELLPESMKKDAELVMVGMTGLEKLNLSGLNRQTLDGIDVNSITHLTSFDISHNSLDLSEKSEDRKLLMTLMEQVSNHQKITVKNTAFENQKPKGYYPQTYDTKEGHYDVDNAEHDILTDFVFGTVTKRNTFIGDEEAFAIYKEGAVDGRQYVSKDYTYEAFRKDYKGYKVHLTASNLGETVTSKVTATTDETYLVDVSDGEKVVHHMKLNIGSGAIMMENLAKGAKVIGTSGDFEQAKKIFDGEKSDRFFTWGQTNWIAFDLGEINLAKEWRLFNAETNTEIKTDSSLNVAKGRLQILKDTTIDLEKMDIKNRKEYLSNDENWTDVAQMDDAKAIFNSKLSNVLSRYWRFCVDGGASSYYPQYTELQILGQRLSNDVANTLKD
B3: Endo-S WT: wild-type Endo-S, endo-β-N-acetylglucosaminidase of Streptococcus pyogenes (SEQ ID NO: 1) (protein)
chain: MDKHLLVKRTLGCVCAATLMGAALATHHDSLNTVKAEEKTVQVQKGLPSIDSLHYLSENSKKEFKEELSKAGQESQKVKEILAKAQQADKQAQELAKMKIPEKIPMKPLHGPLYGGYFRTWHDKTSDPTEKDKVNSMGELPKEVDLAFIFHDWTKDYSLFWKELATKHVPKLNKQGTRVIRTIPWRFLAGGDNSGIAEDTSKYPNTPEGNKALAKAIVDEYVYKYNLDGLDVDVEHDSIPKVDKKEDTAGVERSIQVFEEIGKLIGPKGVDKSRLFIMDSTYMADKNPLIERGAPYINLLLVQVYGSQGEKGGWEPVSNRPEKTMEERWQGYSKYIRPEQYMIGFSFYEENAQEGNLWYDINSRKDEDKANGINTDITGTRAERYARWQPKTGGVKGGIFSYAIDRDGVAHQPKKYAKQKEFKDATDNIFHSDYSVSKALKTVMLKDKSYDLIDEKDFPDKALREAVMAQVGTRKGDLERFNGTLRLDNPAIQSLEGLNKFKKLAQLDLIGLSRITKLDRSVLPANMKPGKDTLETVLETYKKDNKEEPATIPPVSLKVSGLTGLKELDLSGFDRETLAGLDAATLTSLEKVDISGNKLDLAPGTENRQIFDTMLSTISNHVGSNEQTVKFDKQKPTGHYPDTYGKTSLRLPVANEKVDLQSQLLFGTVTNQGTLINSEADYKAYQNHKIAGRSFVDSNYHYNNFKVSYENYTVKVTDSTLGTTTDKTLATDKEETYKVDFFSPADKTKAVHTAKVIVGDEKTMMVNLAEGATVIGGSADPVNARKVFDGQLGSETDNISLGWDSKQSIIFKLKEDGLIKHWRFFNDSARNPETTNKPIQEASLQIFNIKDYNLDNLLENPNKFDDEKYWITVDTYSAQGERATAFSNTLNNITSKYWRVVFDTKGDRYSSPVVPELQILGYPLPNADTIMKTVTTAKELSQQKDKFSQKMLDELKIKEMALETSLNSKIFDVTAINANAGVLKDCIEKRQLLKK
modifications: Streptococcus pyogenes

Experiments:
Type in all cases: biochemical
[1] = test system: deglycosylated rituximab; experiment: Kinetic measurements (KM, Vmax) of Endo-S/Endo-S2 mutants for deglycosylated rituximab
Excerpt: (§1) Peptide-N-Glycosidase F (PNGase F) treated rituximab was used as the internal standard due to its similarities to the deglycosylated and transferred product in terms of their molecular structures and ionization efficiencies. After PNGase F treatment, a mutation will be introduced into the amino acid sequence of rituximab so the product antibody will not interfere with the reaction via re-glycosylation^35. A standard product S2G2F-rituximab was synthesized following the previously reported procedure^29. […] Serial dilutions containing a gradient of S2G2F-rituximab (0, 0.25, 0.5, 0.75, 1.0, 1.25 and 1.5 μM) were mixed with a stock solution containing 0.67 μM internal standard. These mixed sample solutions were quantified by selected ion monitoring (SIM) to calculate the single-point normalization factor^31. The factor could then be used to calculate the relative amount of the final product N-glycoform for each reaction in the following experiments.
(§2) Measurements of KM and Vmax for SCT-oxa. Serial dilutions with a total volume of 10 μL were prepared with a gradient of SCT-oxa concentrations and a constant deglycosylated antibody concentration mixed in PBS, pH 7.4. Each reaction was initiated by adding 1μμL, of Endo-S/S2 mutants with a concentration of 0.1 mg/M1 and the reaction was conducted at 30° C. The concentrations of SCT-oxa were within a range from 6.25 μM to 400 μM. For each reaction, three aliquots were taken at t=1, 2 and 3 min and immediately quenched in 100 μL 0.1% formic acid. The quenched reaction samples were then characterized by ESI-MS, and the concentration of product in each mixture was calculated using the normalization factor, as shown above. A linear progression curve was confirmed for each reaction by sampling at multiple early time points and plotting them in the same graph, which emphasized that the V0 measured indeed represents the initial rate of each reaction. The KM and Vmax were measured by fitting the initial velocity against the SCT-oxa concentration using the GraphPad Prism7 program. The experiments were conducts in triplicate to determine the error in these measurements.
The KM and Vmax values of both Endo-S and Endo-S2 mutants for the deglycosylated antibody substrate were measured in a similar fashion as to those for SCT-Oxa. In the serial reactions, the concentrations of antibody range from 0.313 μM to 20 μM, whereas the SCT-Oxa concentration was fixed at 400 μM. A similar control reaction was also performed for each concentration to monitor the non-enzymatic side reactions.

[2] = Kinetic measurements (KM, Vmax) of Endo-S/Endo-S2 mutants for SCT-Oxa; conditions: for Km / kcat: Endo-S2 mutants, donor substrate SCT-Oxa, PBS pH 7.4, 30° C.
Protocol: Using a sialylated glycan oxazoline (SCT-Oxa) as the donor and the deglycosylated rituximab as the acceptor substrate, we measured the kinetic parameters of the enzyme catalyzed glycosylation were measured. A mass spectrometry-based approach with an internal standard was used to estimate the product formation.^31-33.
as §1
as §2, with “A linear progression curve was confirmed for each reaction by sampling at multiple early time points and plotting them in the same graph, which emphasized that the V0 measured indeed represents the initial rate of each reaction.” left out

[3] = test system: deglycosylated rituximab; experiment: Transglycosylation activity assay of Endo-S and D233 mutants, LC-ESI-MS
Protocol: (§3) The hydrolytic activity of the mutants generated was evaluated using rituximab as the substrate, and the transglycosylation activity was evaluated using the sugar oxazoline and the deglycosylated rituximab as the donor and acceptor substrates, respectively (Scheme 1).
(§4) The LC-MS characterization of different antibody glycoforms was conducted on an Exactive Plus Orbitrap instrument (Thermo Scientific). The intact antibody sample was analyzed with a Waters XBridge™ BEH300 C4 column (3.5 μm, 2.1×50 mm). The program includes a 9 min linear gradient of 5-90% MeCN containing 0.1% formic acid at a flow rate of 0.4 mL/min. The original mass data were processed through deconvolution and integration through MagTran Software (Amgen).
as §1
(§5) The hydrolytic activity of each Endo-S mutants and the wild-type (0.01 mg/mL) was assayed in PBS (pH 7.4, 10 μl) at 30° C. with synthetic biantennary sialo-complex-type rituximab (1.0 mg/mL, 6.9 μM) as the starting material. Each reaction was terminated at 5 min and an aliquot was taken from the reaction mixture and dissolved in 0.1% formic acid. The relative quantity of the hydrolysis product was calculated through deconvolution and integration of the selected MS peaks. The experimental details of product quantification using LC-MS are illustrated below. The transglycosylation activity of Endo-S was measured in a similar fashion: deglycosylated Rituximab (10.0 mg/mL, 69 μM) was incubated with SCT-Oxa (1.38 mM, 20 eq) under catalysis of Endo-S enzymes (0.01 mg/mL) under the same condition as hydrolysis. The transglycosylation product SCT-Rituximab was analyzed as mentioned above. Both functional assays were repeated twice for each mutant and the wild-type, and the average activity was recorded

[4] = test system: rituximab; experiment: Hydrolysis activity assay of Endo-S and D233 mutants, LC-ESI-MS; conditions: rituximab 1.0 mg/mL as substrate, enzyme 0.01 mg/mL, PBS pH 7.4, 30° C., 5 min, duplicate
Protocol: as §3, §4, §1, §5

[5] = Endo-S2 mutants, acceptor substrate deglycosylated rituximab, SCT-Oxa fixed at 400 μM
[6] = Endo-S2, glycan oxazoline substrate

Row | Molecule | substrate affinity for the deglycosylated antibody (in words) ([1]; Asp-to-Met versus Asp-to-Ala mutant) | Km [1, 5] | kcat [1, 5] | decrease in substrate affinity (KM) versus D184A [2, 6] | increase in catalytic turnover numbers (kcat) over D184A [2, 6] | increase in kcat/KM over D184A ([2]; Endo-S2, sugar oxazoline substrate) | Km [2] | kcat [2] | catalytic turnover number compared with Endo-S D233M (in words) ([2]; for both the sugar oxazoline and the antibody substrates) | KM value relative to Endo-S2 D184M ([1]; deglycosylated rituximab) | Transglycosylation Activity ([3]; deglycosylated rituximab 10.0 mg/mL, SCT-Oxa 1.38 mM (20 eq), enzyme 0.01 mg/mL, PBS pH 7.4, 30° C., duplicate) | Transglycosylation/Hydrolysis Ratio T/H ([3]; ratio of transglycosylation to hydrolysis activity, Table 1) | Specific Hydrolysis Activity [4]
1 | B1 | significantly higher substrate affinity for the antibody than the Endo-S2 D184A mutant | 32.6 ± 6.71 µM | 0.4973 ± 0.155 s⁻¹ | less than 2 fold | more than 15 fold | more than 10 fold | 229 ± 34.8 µM | 2.7968 ± 0.3417 s⁻¹ | significantly higher catalytic turnover number than Endo-S D233M |  |  |  | 
2 | B2 |  | > 680 µM |  |  |  |  | 121 ± 17.1 µM | 0.17 ± 0.0395 s⁻¹ |  | more than 20 times |  |  | 
3 | B3 |  |  |  |  |  |  |  |  |  |  | 25.89 100*(μmol/min/mg) | 9.35 | 2.77 100*(μmol/min/mg)
